The values that follow come from US9518103B2, “Optogenetic probes for measuring membrane potential” (President and Fellows of Harvard College, priority 2014, dated 2016).

A short description of data set [1]: Quantum yield of solubilized protein (Cy5 reference). The following applies: excitation at 600 nm. Type of data set: physicochemical. On the procedure:
Solubilization and spectroscopic characterization of QuasAr1 and QuasAr: E. coli expressing QuasAr1 and QuasAr2 were grown in 12 mL LB medium with 200 μg/ml ampicillin overnight. The next day, 12 mL of liquid LB medium containing 50 μM retinal, 200 μg/ml ampicillin and 0.1% arabinose was added into the overnight culture, followed by additional incubation at 37° C. for 4 hours. The cell pellets were collected by centrifugation and lysed by suspension in B-PER solution (Pierce). The cytoplasmic fraction was discarded after centrifugation and the colored insoluble fraction was resuspended in phosphate buffered saline (PBS) containing 1.5% n-dodecyl-β-D-maltopyranoside (Affymetrix, Inc.). The suspension was homogenized by an ultrasonic homogenizer and centrifuged (17,000 g for 15 mins, 4° C.). The solubilized protein in the supernatant was used for in vitro spectroscopic characterization.
Absorption spectra were recorded on a DU-800 UV-visible spectrophotometer (Beckman) and fluorescence spectra were recorded on a Safire2 plate reader (Tecan). Cy5 carboxylic acid (Cyandye) was used as the reference for quantum yield measurement. Quantum yield measurements were performed on a series of dilutions of each protein solution and standard, with absorbance values ranging from 0.01 to 0.05 at 600 nm. The fluorescence emission spectra of each dilution were recorded with excitation at 600 nm and the total fluorescence intensities obtained by integration. Integrated fluorescence intensity vs. absorbance was plotted for each protein and each standard. Quantum yields, Φ, were determined from the slopes (S) of each line using the equation: Φprotein=Φstandard×(Sprotein/Sstandard).

The subject of the next data set is HEK293T cells. Kind of data set: Simultaneous whole-cell patch clamp electrophysiology and fluorescence in HEK cells (brightness, voltage sensitivity, speed). Type of data set: cell-based. The following applies: for voltage sensitivity (ΔF/F per 100 mV): HEK cells. On the procedure: Simultaneous electrophysiology and fluorescence in HEK cells: HEK293T cells (ATCC CRL-11268) were cultured and transfected following standard protocols.^10 Briefly, HEK-293 cells were grown at 37° C., 5% CO2, in DMEM supplemented with 10% FBS and penicillin-streptomycin. Plasmids were transfected using Transit 293T (Mirus) following the manufacturer's instructions, and assayed 48 hours later. The day before recording, cells were re-plated onto glass-bottom dishes (MatTek) at a density of ˜10,000 cells/cm^2.
Cells were supplemented with retinal by diluting stock retinal solutions (40 mM, DMSO) in growth medium to a final concentration of 5 μM, and then returning the cells to the incubator for 0.5-1 hour. All imaging and electrophysiology were performed in Tyrode buffer (containing, in mM: 125 NaCl, 2.5 KCl, 3 CaCl2, 1 MgCl2, 10 HEPES, 30 glucose pH 7.3, and adjusted to 305-310 mOsm with sucrose). A gap junction blocker, 2-aminoethoxydiphenyl borate (50 μM, Sigma), was added to eliminate electrical coupling between cells.
Filamented glass micropipettes (WPI) were pulled to a tip resistance of 5-10 MΩ, and filled with internal solution containing 125 mM potassium gluconate, 8 mM NaCl, 0.6 mM MgCl2, 0.1 mM CaCl2, 1 mM EGTA, 10 mM HEPES, 4 mM Mg-ATP, 0.4 mM Na-GTP (pH 7.3); adjusted to 295 mOsm with sucrose. Pipettes were positioned with a Sutter MP285 manipulator. Whole-cell, voltage and current clamp recordings were acquired using an […] 700B amplifier (Molecular Devices), filtered at 2 kHz with the internal Bessel filter and digitized with a National Instruments PCIE-6323 acquisition board at 5-10 kHz. Data was only acquired from HEK cells having reversal potentials between −10 and −40 mV, access resistance<25 MΩ and membrane resistance>0.5 GΩ.
Simultaneous whole-cell patch clamp recordings and fluorescence recordings were acquired on a home-built, inverted epifluorescence microscope, described previously^10 and described below in “Apparatus”. For step response measurements, voltage clamp electronics were compensated 90-95%. We examined variants of QuasAr1 with mutations at position 95 (Asn, Cys, Gin, His and Tyr) and position 106 (Arg, Asp, Asn, Cys, Glu, His, Lys and Tyr). These experiments confirmed that histidine at position 106 provided undetectable photocurrent, and the best combination of improved voltage sensitivity, and fast kinetics.
We compared the fluorescence, voltage sensitivity, and speed of the QuasArs to wild-type Arch in HEK cells, using epifluorescence microscopy and whole-cell patch clamp electrophysiology. Under low intensity illumination (640 nm, 500 mW/cm^2), QuasAr1 was 15-fold brighter than wild-type Arch, and QuasAr2 was 3.3-fold brighter (FIG. 1B; Methods).

The conditions of data set [2]: earlier work, cited from earlier work.
Data set [3] concerns cultured rat hippocampal neurons. Kind of data set: Photocurrent in cultured rat hippocampal neurons. Type of data set: cell-based. On the procedure:
FIGS. 4A-4B show the photophysics of QuasArs in mammalian cells. […] Steady state photocurrents were calculated by averaging the current over the last 0.25 seconds of light exposure and subtracting the holding current (cells held at −65 mV) in the dark. These currents hyperpolarized cells by 25±4 mV and 19±3 mV, respectively. […] The double mutants had mutations at the locations of the proton acceptor (Asp95) and proton donor (Asp106) to the Schiff base. QuasAr1 includes mutations D95H, D106H, and QuasAr2 includes mutations D95Q, D106H. The three additional backbone mutations in the QuasArs (P60S, T80S, F161V) increased brightness relative to the double mutants, Fluorescence of each Arch mutant was measured with excitation at 640 nm and emission from 660-760 nm. To control for variation in expression level, fluorescence was normalized by eGFP fluorescence (λexc=488 nm, λem=510−550 nm). Error bars represent s.e.m. for measurements on n=5-10 cells.
Measurements were performed on primary cultures at 13-15 DIV. Experiments were conducted in Tyrode's solution containing 125 mM NaCl, 2.5 mM KCl, 3 mM CaCl2, 1 mM MgCl2, 10 mM HEPES, 30 mM glucose (pH 7.3) and adjusted to 305-310 mOsm with sucrose. Prior to imaging, neurons were incubated with 5 μM all-trans retinal for 30 minutes and then washed with Tyrode's solution.
Synaptic blockers were added to the imaging medium for measurements of single-cell electrophysiology (Arch photocurrents, and single-cell excitability). The blockers comprised NBQX (10 μM, Tocris), D(−)-2-amino-5-phosphonovaleric acid (APS; […]), and gabazine (SR-95531, 20 μM, Tocris). For measurements of channel rhodopsin photocurrents in neurons, TTX (1 μM, Tocris) was included along with the synaptic blockers to prevent recruitment of voltage gated sodium channels. […] Recordings were terminated if membrane resistance changed by >10%. Experiments were performed at 23° C. under ambient atmosphere unless otherwise noted.

The mark [4] stands for this setting: blue illumination (488 nm, 500 mW/cm^2).
The mark [5] stands for this setting: red illumination (640 nm, 300 W/cm^2).

Like-named read-outs stand apart in the source and are kept apart here.

B1: Arch D95N: Archaerhodopsin 3 D95N mutant, non-pumping voltage indicator of US 2013/0224756 (protein)
chain: MDPIALQAGYDLLGDGRPETLWLGIGTLLMLIGTFYFLVRGWGVTDKDAREYYAVTILVPGIASAAYLSMFFGIGLTEVTVGGEMLDIYYARYANWLFTTPLLLLDLALLAKVDRVTIGTLVGVDALMIVTGLIGALSHTAIARYSWWLFSTICMIVVLYFLATSLRSAAKERGPEVASTFNTLTALVLVLWTAYPILWIIGTEGAGVVGLGIETLLFMVLDVTAKVGFGFILLRSRAILGDTEAPEPSAGADVSAAD
B1: in data set [1], the Quantum yield was 4 × 10^−4 and the “Quantum yield relative to Arch D95N” value is listed as 1. In the data set on HEK293T cells, the “voltage sensitivity (ΔF/F per 100 mV)” value was determined as 60%. For the same molecule, the “step response / response time” value in data set [2] was 41 ms. In data set [2] (listed as Arch 3 D95N), the “step response / response time” value is 40 ms.

B2: Arch(WT): wild-type Archaerhodopsin 3, light-driven proton pump from Halobacterium sodomense (protein)
chain: MDPIALQAGYDLLGDGRPETLWLGIGTLLMLIGTFYFLVRGWGVTDKDAREYYAVTILVPGIASAAYLSMFFGIGLTEVTVGGEMLDIYYARYADWLFTTPLLLLDLALLAKVDRVTIGTLVGVDALMIVTGLIGALSHTAIARYSWWLFSTICMIVVLYFLATSLRSAAKERGPEVASTFNTLTALVLVLWTAYPILWIIGTEGAGVVGLGIETLLFMVLDVTAKVGFGFILLRSRAILGDTEAPEPSAGADVSAAD
modifications: Halobacterium sodomense
notes: wild-type Archaerhodopsin 3, light-driven proton pump from Halobacterium sodomense
In the case of B2, in data set [1], the Quantum yield result was “*Due to the low light intensities used to determine QYs, fluorescence from Arch was not detected above baseline”. In the data set on HEK293T cells, the “voltage sensitivity compared with QuasAr2” value was “three-fold less than the sensitivity of QuasAr2” and the “voltage sensitivity (ΔF/F per 100 mV)” value turned out to be 40%. In the data set on HEK293T cells (23° C.), the “τdown (+30 mV to −70 mV) % τ1” value worked out at 67%, the “τdown (+30 mV to −70 mV) τ1” value is 0.25 ms, the “τdown (+30 mV to −70 mV) τ2” value was 1.9 ms and the “τup (−70 mV to +30 mV) τ1” value worked out at 0.6 ms. For the same molecule, in the data set with HEK293T cells (23° C., HEK293 cells), the “Brightness (λexc = 640 nm) 0.7 W/cm^2” value is given as 1, the “Brightness (λexc = 640 nm) 800 W/cm^2” value came out at 4.0 and the “Sensitivity (ΔF/F per 100 mV)” value is 40%. Further, in data set [3] (setting [4]), the “hyperpolarization of cells by photocurrent” value stood at 19±3 mV and the photocurrent is recorded as 140±25 pA. In data set [3] (setting [5]), the “hyperpolarization of cells by photocurrent” value came to 25±4 mV and the photocurrent was 220±30 pA. Moreover, the “step response / response time” value in data set [2] is recorded as 0.6 ms.

B3: Arch D95H/D106H/F161V: Arch triple mutant D95H, D106H, F161V (protein)
chain: MDPIALQAGYDLLGDGRPETLWLGIGTLLMLIGTFYFLVRGWGVTDKDAREYYAVTILVPGIASAAYLSMFFGIGLTEVTVGGEMLDIYYARYAHWLFTTPLLLLHLALLAKVDRVTIGTLVGVDALMIVTGLIGALSHTAIARYSWWLFSTICMIVVLYVLATSLRSAAKERGPEVASTFNTLTALVLVLWTAYPILWIIGTEGAGVVGLGIETLLFMVLDVTAKVGFGFILLRSRAILGDTEAPEPSAGADVSAAD
On to B3, for which, in data set [1], the Quantum yield was 5 × 10^−3 and the “Quantum yield relative to Arch D95N” value amounted to 13.

B4: Arch D95H/D106H/P60S: Arch triple mutant D95H, D106H, P60S (protein)
chain: MDPIALQAGYDLLGDGRPETLWLGIGTLLMLIGTFYFLVRGWGVTDKDAREYYAVTILVSGIASAAYLSMFFGIGLTEVTVGGEMLDIYYARYAHWLFTTPLLLLHLALLAKVDRVTIGTLVGVDALMIVTGLIGALSHTAIARYSWWLFSTICMIVVLYFLATSLRSAAKERGPEVASTFNTLTALVLVLWTAYPILWIIGTEGAGVVGLGIETLLFMVLDVTAKVGFGFILLRSRAILGDTEAPEPSAGADVSAAD
B4: in data set [1], the Quantum yield is recorded as 5 × 10^−3 and the “Quantum yield relative to Arch D95N” value worked out at 12.

B5: Arch D95H/D106H: Arch double mutant D95H, D106H (protein)
chain: MDPIALQAGYDLLGDGRPETLWLGIGTLLMLIGTFYFLVRGWGVTDKDAREYYAVTILVPGIASAAYLSMFFGIGLTEVTVGGEMLDIYYARYAHWLFTTPLLLLHLALLAKVDRVTIGTLVGVDALMIVTGLIGALSHTAIARYSWWLFSTICMIVVLYFLATSLRSAAKERGPEVASTFNTLTALVLVLWTAYPILWIIGTEGAGVVGLGIETLLFMVLDVTAKVGFGFILLRSRAILGDTEAPEPSAGADVSAAD
Take B5: in data set [1], the Quantum yield was 2 × 10^−3 and the “Quantum yield relative to Arch D95N” value is listed as 4.2. Besides, the “voltage sensitivity compared with QuasAr2” value with HEK293T cells is listed as “three-fold less than the sensitivity of QuasAr2”.
